Test results taken from patent US6441131.

Key:
peptide of Example 2(51) = molecular target: T1, peptide of Example 2(51)
T1 chain: GLSEXX

peptide of Example 2(18) = molecular target: T2, peptide of Example 2(18)
T2 chain: APQQAXX

peptide of Example 2(57) = molecular target: T3, peptide of Example 2(57)
T3 chain: TLSEXX

peptide of Example 2(7) = molecular target: T4, peptide of Example 2(7)
T4 chain: PQQAXX

[1] = molecular target: T5, Nα-Me-GlyLeuSerGluAla(2-Naph)Ala-pNA.TFMSA
T5 chain: GLSEXX

peptide of Example 2(16) = molecular target: T6, peptide of Example 2(16)
T6 chain: NPQQAXX

peptide of Example 2(56) = molecular target: T7, peptide of Example 2(56)
T7 chain: SLSEXX

peptide of Example 2(69) = molecular target: T8, peptide of Example 2(69)
T8 chain: XLSEXX

peptide of Example 2(54) = molecular target: T9, peptide of Example 2(54)
T9 chain: KLSEXX

peptide of Example 2(3) = molecular target: T10, peptide of Example 2(3)
T10 chain: PQQAXX

peptide of Example 2(63) = molecular target: T11, peptide of Example 2(63)
T11 chain: PNNLSEXX

[2] = molecular target: T12, ProLeuSerGluAla(2-Naph)Ala-pNA
T12 chain: PLSEXX

peptide of Example 2(61) = molecular target: T13, peptide of Example 2(61)
T13 chain: KNLSEXX

peptide of Example 2(39) = molecular target: T14, peptide of Example 2(39)
T14 chain: PMSEXX

peptide of Example 2(53) = molecular target: T15, peptide of Example 2(53)
T15 chain: QLSEXX

peptide of Example 2(24) = molecular target: T16, peptide of Example 2(24)
T16 chain: PQQGXX

[3] = molecular target: T17, Nα-Me-GlySerGlyAla(2-Naph)AlaAla-DCHA.TFMSA
T17 chain: GSGXAX

peptide of Example 2(33) = molecular target: T18, peptide of Example 2(33)
T18 chain: PQEEXX

peptide of Example 2(83) = molecular target: T19, peptide of Example 2(83)
T19 chain: GLSEXAX

peptide of Example 2(34) = molecular target: T20, peptide of Example 2(34)
T20 chain: PQDEXX

peptide of Example 2(80) = molecular target: T21, peptide of Example 2(80)
T21 chain: LSEXAX

peptide of Example 2(45) = molecular target: T22, peptide of Example 2(45)
T22 chain: PTSEXX

peptide of Example 2(11) = molecular target: T23, peptide of Example 2(11)
T23 chain: PQQAXX

peptide of Example 2(23) = molecular target: T24, peptide of Example 2(23)
T24 chain: PQQQXX

peptide of Example 2(36) = molecular target: T25, peptide of Example 2(36)
T25 chain: PNSEXX

peptide of Example 2(78) = molecular target: T26, peptide of Example 2(78)
T26 chain: LSEXAX

peptide of Example 2(22) = molecular target: T27, peptide of Example 2(22) (not fully specified)
T27 chain: PQQNXX

peptide of Example 2(25) = molecular target: T28, peptide of Example 2(25)
T28 chain: PQQMXX

peptide of Example 2(14) = molecular target: T29, peptide of Example 2(14)
T29 chain: KPQQAXX

B1: human pepsin II (protein)
chain: SVTYEPMAYMDAAYFGEISIGTPPQNFLVLFDTGSSNLWVPSVYCQSQACTSHSRFNPSESSTYSTNGQTFSLQYGSGSLTGFFGYDTLTVQSIQVPNQEFGLSENEPGTNFVYAQFDGIMGLAYPALSVDEATTAMQGMVQEGALTSPVFSVYLSNQQGSSGGAVVFGGVDSSLYTGQIYWAPVTQELYWQIGIEEFLIGGQASGWCSEGCQAIVDTGTSLLTVPQQYMSALLQATGAQEDEYGQFLVNCNSIQNLPSLTFIINGVEFPLPPSSYILSNNGYCTVGVEPTYLSSQNGQPLWILGDVFLRSYYSVYDLGNNRVGFATAA
pepsin II digesting rate (µM/min · 1 µg Enz) (peptide of Example 2(51)): 54.4
ration of digesting rate (pepsin II/ pepsin I) (peptide of Example 2(51)): 334
pepsin II digesting rate (µM/min · 1 µg Enz) (peptide of Example 2(18)): 9.2
ration of digesting rate (pepsin II/ pepsin I) (peptide of Example 2(18)): 757
pepsin II digesting rate (µM/min · 1 µg Enz) (peptide of Example 2(57)): 18.8
ration of digesting rate (pepsin II/ pepsin I) (peptide of Example 2(57)): 661
pepsin II digesting rate (µM/min · 1 µg Enz) (peptide of Example 2(7)): 3.5
ration of digesting rate (pepsin II/ pepsin I) (peptide of Example 2(7)): 104
pepsin II digesting rate (µM/min · 1 µg Enz) [1]: 49.6
ration of digesting rate (pepsin II/ pepsin I) [1]: 158
pepsin II digesting rate (µM/min · 1 µg Enz) (peptide of Example 2(16)): 8.95
ration of digesting rate (pepsin II/ pepsin I) (peptide of Example 2(16)): 1090
pepsin II digesting rate (µM/min · 1 µg Enz) (peptide of Example 2(56)): 10.9
ration of digesting rate (pepsin II/ pepsin I) (peptide of Example 2(56)): 563
pepsin II digesting rate (µM/min · 1 µg Enz) (peptide of Example 2(69)): 73.1
ration of digesting rate (pepsin II/ pepsin I) (peptide of Example 2(69)): 74.2
pepsin II digesting rate (µM/min · 1 µg Enz) (peptide of Example 2(54)): 48.4
ration of digesting rate (pepsin II/ pepsin I) (peptide of Example 2(54)): 177
pepsin II digesting rate (µM/min · 1 µg Enz) (peptide of Example 2(3)): 4.23
ration of digesting rate (pepsin II/ pepsin I) (peptide of Example 2(3)): 2070
pepsin II digesting rate (µM/min · 1 µg Enz) (peptide of Example 2(63)): 29.8
ration of digesting rate (pepsin II/ pepsin I) (peptide of Example 2(63)): 169
pepsin II digesting rate (µM/min · 1 µg Enz) [2]: 55.4
ration of digesting rate (pepsin II/ pepsin I) [2]: 198
pepsin II digesting rate (µM/min · 1 µg Enz) (peptide of Example 2(61)): 36.8
ration of digesting rate (pepsin II/ pepsin I) (peptide of Example 2(61)): 219
pepsin II digesting rate (µM/min · 1 µg Enz) (peptide of Example 2(39)): 45.8
ration of digesting rate (pepsin II/ pepsin I) (peptide of Example 2(39)): 201
pepsin II digesting rate (µM/min · 1 µg Enz) (peptide of Example 2(53)): 62
ration of digesting rate (pepsin II/ pepsin I) (peptide of Example 2(53)): 621
pepsin II digesting rate (µM/min · 1 µg Enz) (peptide of Example 2(24)): 12.1
ration of digesting rate (pepsin II/ pepsin I) (peptide of Example 2(24)): 2080
pepsin II digesting rate (µM/min · 1 µg Enz) [3]: 33.1
ration of digesting rate (pepsin II/ pepsin I) [3]: 120
pepsin II digesting rate (µM/min · 1 µg Enz) (peptide of Example 2(33)): 25.4
ration of digesting rate (pepsin II/ pepsin I) (peptide of Example 2(33)): 402
pepsin II digesting rate (µM/min · 1 µg Enz) (peptide of Example 2(83)): 70.7
ration of digesting rate (pepsin II/ pepsin I) (peptide of Example 2(83)): 29.9
pepsin II digesting rate (µM/min · 1 µg Enz) (peptide of Example 2(34)): 15.4
ration of digesting rate (pepsin II/ pepsin I) (peptide of Example 2(34)): 712
pepsin II digesting rate (µM/min · 1 µg Enz) (peptide of Example 2(80)): 15.8
ration of digesting rate (pepsin II/ pepsin I) (peptide of Example 2(80)): 105
pepsin II digesting rate (µM/min · 1 µg Enz) (peptide of Example 2(45)): 40.5
ration of digesting rate (pepsin II/ pepsin I) (peptide of Example 2(45)): 161
pepsin II digesting rate (µM/min · 1 µg Enz) (peptide of Example 2(11)): 4.1
ration of digesting rate (pepsin II/ pepsin I) (peptide of Example 2(11)): 175
pepsin II digesting rate (µM/min · 1 µg Enz) (peptide of Example 2(23)): 5.9
ration of digesting rate (pepsin II/ pepsin I) (peptide of Example 2(23)): 309
pepsin II digesting rate (µM/min · 1 µg Enz) (peptide of Example 2(36)): 21.2
ration of digesting rate (pepsin II/ pepsin I) (peptide of Example 2(36)): 194
pepsin II digesting rate (µM/min · 1 µg Enz) (peptide of Example 2(78)): 54.4
ration of digesting rate (pepsin II/ pepsin I) (peptide of Example 2(78)): 20.7
pepsin II digesting rate (µM/min · 1 µg Enz) (peptide of Example 2(22)): 12.9
ration of digesting rate (pepsin II/ pepsin I) (peptide of Example 2(22)): 223
pepsin II digesting rate (µM/min · 1 µg Enz) (peptide of Example 2(25)): 5.56
ration of digesting rate (pepsin II/ pepsin I) (peptide of Example 2(25)): 890
pepsin II digesting rate (µM/min · 1 µg Enz) (peptide of Example 2(14)): 3.85
ration of digesting rate (pepsin II/ pepsin I) (peptide of Example 2(14)): 410

B2: human pepsin I (protein)
chain: VDEQPLENYLDMEYFGTIGIGTPAQDFTVVFDTGSSNLWVPSVYCSSLACTNHNRFNPEDSSTYQSTSETVSITYGTGSMTGILGYDTVQVGGISDTNQIFGLSETEPGSFLYYAPFDGILGLAYPSISSSGATPVFDNIWNQGLVSQDLFSVYLSADDQSGSVVIFGGIDSSYYTGSLNWVPVTVEGYWQITVDSITMNGEAIACAEGCQAIVDTGTSLLTGPTSPIANIQSDIGASENSDGDMVVSCSAISSLPDIVFTINGVQYPVPPSAYILQSEGSCISGFQGMNLPTESGELWILGDVFIRQYFTVFDRANNQVGLAPVA
pepsin I digesting rate (µM/min · 1 µg Enz) (peptide of Example 2(51)): 0.163
pepsin I digesting rate (µM/min · 1 µg Enz) (peptide of Example 2(18)): 0.0122
pepsin I digesting rate (µM/min · 1 µg Enz) (peptide of Example 2(57)): 0.0284
pepsin I digesting rate (µM/min · 1 µg Enz) (peptide of Example 2(7)): 0.0335
pepsin I digesting rate (µM/min · 1 µg Enz) [1]: 0.313
pepsin I digesting rate (µM/min · 1 µg Enz) (peptide of Example 2(16)): 0.0082
pepsin I digesting rate (µM/min · 1 µg Enz) (peptide of Example 2(56)): 0.0194
pepsin I digesting rate (µM/min · 1 µg Enz) (peptide of Example 2(69)): 0.985
pepsin I digesting rate (µM/min · 1 µg Enz) (peptide of Example 2(54)): 0.274
pepsin I digesting rate (µM/min · 1 µg Enz) (peptide of Example 2(3)): 0.002
pepsin I digesting rate (µM/min · 1 µg Enz) (peptide of Example 2(63)): 0.176
pepsin I digesting rate (µM/min · 1 µg Enz) [2]: 0.28
pepsin I digesting rate (µM/min · 1 µg Enz) (peptide of Example 2(61)): 0.168
pepsin I digesting rate (µM/min · 1 µg Enz) (peptide of Example 2(39)): 0.228
pepsin I digesting rate (µM/min · 1 µg Enz) (peptide of Example 2(53)): 0.0998
pepsin I digesting rate (µM/min · 1 µg Enz) (peptide of Example 2(24)): 0.0058
pepsin I digesting rate (µM/min · 1 µg Enz) [3]: 0.277
pepsin I digesting rate (µM/min · 1 µg Enz) (peptide of Example 2(33)): 0.0632
pepsin I digesting rate (µM/min · 1 µg Enz) (peptide of Example 2(83)): 2.37
pepsin I digesting rate (µM/min · 1 µg Enz) (peptide of Example 2(34)): 0.0216
pepsin I digesting rate (µM/min · 1 µg Enz) (peptide of Example 2(80)): 0.15
pepsin I digesting rate (µM/min · 1 µg Enz) (peptide of Example 2(45)): 0.251
pepsin I digesting rate (µM/min · 1 µg Enz) (peptide of Example 2(11)): 0.0235
pepsin I digesting rate (µM/min · 1 µg Enz) (peptide of Example 2(23)): 0.0191
pepsin I digesting rate (µM/min · 1 µg Enz) (peptide of Example 2(36)): 0.11
pepsin I digesting rate (µM/min · 1 µg Enz) (peptide of Example 2(78)): 2.62
pepsin I digesting rate (µM/min · 1 µg Enz) (peptide of Example 2(22)): 0.0578
pepsin I digesting rate (µM/min · 1 µg Enz) (peptide of Example 2(25)): 0.0063
pepsin I digesting rate (µM/min · 1 µg Enz) (peptide of Example 2(14)): 0.0094
